In the supplement of paper PMC10126150 one finds switch fluorescence ratio data, which are given here for 66 sequences.

This series concerns ATP. Briefly: switch fluorescence ratio, 500 uM ATP over buffer (Cy3 cluster intensity, sum of 5 cycles each) (fold (ratio)); higher = stronger signal-on switching upon ATP binding; sequences stand for … in TCGTCGGCAGCGTCAGATGTGTATAAGAGACAGTTTTTTTTTTTTTTTTTTTTTTTTT…TC. The conditions noted are these: aptamer strand: ATP DNA aptamer (quencher-CACCTGGGGGAGTATTGCGGAGGAAGG + anchor), 100 nM annealed; ATP concentration: 500 uM. In outline:
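Cy3-labelled switching-strand clusters on a modified Illumina MiSeq flow-cell were annealed to 100 nM quencher-labelled ATP aptamer, imaged in selection buffer, then imaged after 15 min with 500 uM ATP at 22 °C. Five buffer/ATP cycles ran, with NaOH stripping and re-annealing between them. The fluorescence ratio is summed target-cycle over summed buffer-cycle Cy3 intensity per cluster, averaged per switch-domain sequence. Clusters outside 100-1000 RFU were excluded.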

± gives the standard deviation of the averaged measurements.
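Further: ATP exposure 15 min at 22 °C before imaging.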

As for TTGAGAAATT, the switch fluorescence ratio stood at 1 ± 0.014. For TTAGAGTCTG the value was 1.005 ± 0.01. For AAAAGTTGGG the value was 1.01 ± 0.014; for CTGAAGGGAT, 1.05 ± 0.023; for AAGAGGGGTT, 1.03 ± 0.062. For TAATAGTAAT the value was 1.02 ± 0.011. For the sequence AGTATGTTTC, the switch fluorescence ratio came out at 1 ± 0.025. For CGTGCGGGTT the value was 0.993 ± 0.047; for CAGTTTGTGG, 0.9917 ± 0.0018; for TTAGTTTCGG, 1.01 ± 0.019.

Take CGTTGAGGGT: the switch fluorescence ratio worked out at 0.99 ± 0.014. For CGTGGCAAAG the value was 1.02 ± 0.015; for AGTGTGTTAT, 0.974 ± 0.011; for AGCGAGGGAG, 1.005 ± 0.0059. For TGAGGAAGGG the value was 1.04 ± 0.099.

As for GGGGGTCAGC, the switch fluorescence ratio amounted to 1 ± 0.025.

Take TCAGGGACGG: the switch fluorescence ratio stood at 0.982 ± 0.025.

As for CAGGGCAGCC, the switch fluorescence ratio came to 1.01 ± 0.03. For AGGGCAGGG the value was 0.975 ± 0.065.

Turning to TTGATTGGCG, the switch fluorescence ratio amounted to 1.07 ± 0.058. With GTGTGCGCGT, the switch fluorescence ratio is 0.983 ± 0.025.

As to TTTCTGGCTG, the switch fluorescence ratio is 1.025 ± 0.0043. For GAATCAGGGG the value was 1.11 ± 0.012. For TTTCATCTTG, the switch fluorescence ratio came to 0.9706 ± 0.0034. For ACCGTCAGGT the value was 1 ± 0.085. For CAATATCTCC the value was 2.29 ± 0.16; for ACGTGGGGGA, 1.02 ± 0.051. To TGAAGTGAAC belongs 1.17 ± 0.22; to GCGTCTAATC, 0.994 ± 0.011; to ATATAACATT, 1.05 ± 0.018. As to TACAAGTCAA, the switch fluorescence ratio came to 1.02 ± 0.017. For GCGGGCGTCG the value was 0.994 ± 0.048. In the case of AAACGGTGTG, the switch fluorescence ratio turned out to be 1.03 ± 0.037. As to CTGTTCTTTG, the switch fluorescence ratio was 0.982 ± 0.019.

Turning to GTTTTGGCGT, the switch fluorescence ratio came to 0.984 ± 0.021. For TATGGGTGGG, the switch fluorescence ratio was determined as 0.964 ± 0.018. To ATTGTTACTG belongs 1.06 ± 0.021; to CTTGAATGCG, 0.999 ± 0.031; to ACGCTGGGGA, 0.993 ± 0.016.

As for CGTAGTTTTA, the switch fluorescence ratio turned out to be 1.044 ± 0.0041.

Consider TGTTTGCTTT, for which the switch fluorescence ratio amounted to 0.986 ± 0.023.

Take AATAGCAGGA: the switch fluorescence ratio was determined as 1.02 ± 0.02. To TTATAGTCAT belongs 0.965 ± 0.027; to TTACAAGTAT, 1.03 ± 0.021. For CGAGGAAGGG the value was 1.01 ± 0.021. For CGTGCCAGCT the value was 0.9518 ± 0.00082. Regarding GCTCTAGTGT, the switch fluorescence ratio was found to be 0.996 ± 0.013. To TCAGTTGGGG belongs 0.991 ± 0.011. To TTTTTGAATG belongs 0.983 ± 0.032.

As to TCCGGGGAGC, the switch fluorescence ratio is 1.06 ± 0.015. For CAAAGGGCAT the value was 1.02 ± 0.032; for GCAAATGGGA, 1.05 ± 0.017.

Regarding CATTTGGATT, the switch fluorescence ratio stood at 1.04 ± 0.012.

TGATTTAGTT: the switch fluorescence ratio was 0.989 ± 0.02. Regarding TATCGAGTTT, the switch fluorescence ratio came out at 1 ± 0.038. TTTTTGAATT: the switch fluorescence ratio was found to be 1 ± 0.034. ATGATTAAGG: the switch fluorescence ratio was determined as 1.015 ± 0.0029. As to CATAGGAACG, the switch fluorescence ratio amounted to 0.955 ± 0.045. Take CGGGGCCTGG: the switch fluorescence ratio came out at 0.959 ± 0.021. With AGGGAGCGGT, the switch fluorescence ratio came out at 1.026 ± 0.0063.

With TGCTAGGGTC, the switch fluorescence ratio was determined as 0.994 ± 0.025. On to AAGGGACATT, for which the switch fluorescence ratio came out at 1.01 ± 0.012. Consider TTGGAGGTAG, for which the switch fluorescence ratio was found to be 1 ± 0.037. Turning to CGGATGGGAA, the switch fluorescence ratio came to 0.995 ± 0.024. Turning to TTGATCAGTA, the switch fluorescence ratio came to 1.02 ± 0.02. To TATTTATGTC belongs 1.02 ± 0.025.
